In patent US20150353909:
Positions count from the first letter of the chain named. Numbers in names are those of the source.

What was measured:
[1] = target: K63-tetraubiquitin chains, P0CG48
[2] = target: purified recombinant linear UB tetramers
[3] = target: K48-tetraubiquitin chains, P0CG48
[4] = target: purified recombinant linear UB dimers
[5] = target: purified recombinant linear UB trimers
HA3-RUB-GST, Q9SHE7 = target: T1, HA3-RUB-GST, Q9SHE7
T1 chain: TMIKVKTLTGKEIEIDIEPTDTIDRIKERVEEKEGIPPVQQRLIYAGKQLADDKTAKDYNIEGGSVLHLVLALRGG

[6] = target: HA3-UBQ-GST [GST: P08515]

K63-tetraubiquitin chains, P0CG48, sequence (P0CG48 whole entry, looked up): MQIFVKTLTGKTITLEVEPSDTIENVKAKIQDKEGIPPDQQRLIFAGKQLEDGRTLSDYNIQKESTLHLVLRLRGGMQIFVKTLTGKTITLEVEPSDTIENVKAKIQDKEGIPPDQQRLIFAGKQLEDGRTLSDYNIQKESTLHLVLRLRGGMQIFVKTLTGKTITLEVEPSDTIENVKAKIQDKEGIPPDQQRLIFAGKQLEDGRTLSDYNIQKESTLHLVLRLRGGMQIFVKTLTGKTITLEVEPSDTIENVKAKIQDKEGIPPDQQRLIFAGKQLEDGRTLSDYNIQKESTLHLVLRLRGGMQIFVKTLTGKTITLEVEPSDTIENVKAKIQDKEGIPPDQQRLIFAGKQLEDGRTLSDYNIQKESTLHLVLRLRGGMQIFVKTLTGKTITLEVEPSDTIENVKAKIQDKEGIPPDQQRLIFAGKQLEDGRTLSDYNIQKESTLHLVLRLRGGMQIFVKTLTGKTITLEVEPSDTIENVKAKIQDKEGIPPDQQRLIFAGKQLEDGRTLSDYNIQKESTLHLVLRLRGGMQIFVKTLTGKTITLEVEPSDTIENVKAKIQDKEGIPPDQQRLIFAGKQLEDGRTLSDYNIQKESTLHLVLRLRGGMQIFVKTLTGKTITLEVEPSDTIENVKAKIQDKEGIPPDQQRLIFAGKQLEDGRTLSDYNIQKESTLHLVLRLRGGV
K48-tetraubiquitin chains, P0CG48, sequence (P0CG48 whole entry, looked up): as above

B1: OTU1-C92S (protein)
chain: MQNQIDMVKDEAEVAASISAIKGEEWGNCSSVEDQPSFQEEEAAKVPYVGDKEPLSSLAAEYQSGSPILLEKIKILDSQYIGIRRTRGDGNSFFRSFMFSYLEHILESQDRAEVDRIKVNVEKCRKTLQNLGYTDFTFEDFFALFLEQLDDILQGTEESISYDELVNRSRDQSVSDYIVMFFRFVTAGDIRTRADFFEPFITGLSNATVDQFCKSSVEPMGEESDHIHITALSDALGVAIRVVYLDRSSCDSGGVTVNHHDFVPVGITNEKDEEASAPFITLLYRPGHYDILYPKPSCKVSDNVGK
[1]
  cleavage activity: completely abolished
[2]
  linear UB polymer cleavage activity: generally abolished
[3]
  cleavage activity: completely abolished
[4]
  linear UB polymer cleavage activity: generally abolished
[5]
  linear UB polymer cleavage activity: generally abolished

B2: OTU1-D89E (protein)
chain: B1 chain with D89E, S92C
[1]
  cleavage activity: completely abolished
[2]
  linear UB polymer cleavage activity: to a similar extent as the wild-type protein
[3]
  cleavage activity: completely abolished
[4]
  linear UB polymer cleavage activity: to a similar extent as the wild-type protein
[5]
  linear UB polymer cleavage activity: to a similar extent as the wild-type protein

B3: OTU1-H288R (protein)
chain: B1 chain with S92C, H288R
[1]
  cleavage activity: completely abolished
[2]
  linear UB polymer cleavage activity: generally abolished
[3]
  cleavage activity: completely abolished
[4]
  linear UB polymer cleavage activity: generally abolished
[5]
  linear UB polymer cleavage activity: generally abolished

B4: GST-OTU4c-C136S (protein)
chain: MMICYSPITTCSRNAISIKRHLGSRLYGVVAHGSSKFSCYSLLSGLSRRHYTGFRVSVSNRPSSWHDKGLFGFAYTGVIVSLLVCYSSTSQSAYADSSRDKDANNVHHHSSDGKFHNGKRVYTDYSIIGIPGDGRSLFRSVAHGFCLRSGKLAPGEKMQRELADELRTRVADEFIQRRQETEWFVEGDFDTYVRQIRDPHVWGGEPELFMASHVLQMPITVYMKDDKAGGLISIAEYGQEYGKDDPIRVLYHGFGHYDALLLHESKASIPKSKL
[1]
  cleavage activity: completely abolished
[2]
  linear UB polymer cleavage activity: generally abolished
[3]
  cleavage activity: completely abolished
[4]
  linear UB polymer cleavage activity: generally abolished
HA3-RUB-GST, Q9SHE7
  fusion protein cleavage activity: generally abolished
[6]
  fusion protein cleavage activity: generally abolished
[5]
  linear UB polymer cleavage activity: generally abolished

B5: OTU7a-C48S (protein)
chain: MAKTKQQKSKPKKQPHQKQGKDCDLSQFRAQLDALGLKIIQVTADGNSFFRAIADQLEGNEDEHNKYRNMIVLYIVKNREMFEPFIEDDVPFEDYCKTMDDDGTWAGNMELQAASLVTRSNICIHRNMSPRWYIRNFEDTRTRMIHLSYHDGEHYNSVRSKEDACGGPARPVVIEADAKVSAASKQAKATESKSKNKADKCHVNAGAIKVVMSGSCCDNTEKAEQVLLQVNGDVDAAIEFLIADQGMESLTENDTETASASDTINPKHASDSPMENTEQAREELIEEESASGNNSETVQAKCTTQTDDKKIPRNKTCPCGSKKKYKSCCGTATGRSSVKLLVSQTMESKKGRKNLRRGTSNEVEANAPDVGALCI
[1]
  cleavage activity: completely abolished
[3]
  cleavage activity: completely abolished

B6: OTU4c-NΔ (protein)
chain: SGLSRRHYTGFRVSVSNRPSSWHDKGLFGFAYTGVIVSLLVCYSSTSQSAYADSSRDKDANNVHHHSSDGKFHNGKRVYTDYSIIGIPGDGRCLFRSVAHGFCLRSGKLAPGEKMQRELADELRTRVADEFIQRRQETEWFVEGDFDTYVRQIRDPHVWGGEPELFMASHVLQMPITVYMKDDKAGGLISIAEYGQEYGKDDPIRVLYHGFGHYDALLLHESKASIPKSKL
[1]
  catalytic activities: did not modify
[2]
  catalytic activities: did not modify
[3]
  catalytic activities: did not modify
[4]
  catalytic activities: did not modify
HA3-RUB-GST, Q9SHE7
  catalytic activities: did not modify
[6]
  catalytic activities: did not modify
[5]
  catalytic activities: did not modify

B7: OTU9-NΔ 1-100 (protein)
chain: GQENQGEAIDITQESDILHNHNGNMEDKNVARIRFEGGQSSPSRDDDSVCSVEIEEESWSEVGKRLNQMIPIAHVPKINGELPSEDEQISDHERLFQRLQLYGLVENKIEGDGNCQFRSLSDQLYRSPEHHNFVREQVVNQLAYNREIYEGYVPMAYNDYLKAMKRNGEWGDHVTLQAAADLFGVRMFVITSFKDTCYIEILPHFQKSNRLICLSFWAEVHYNSIYPEGELPIPEGKKKKKYWVF
[1]
  cleavage: comparable to that catalyzed by the corresponding wild-type proteins
[3]
  cleavage: comparable to that catalyzed by the corresponding wild-type proteins

B8: OTU9-NΔ1-172 (protein)
chain: AHVPKINGELPSEDEQISDHERLFQRLQLYGLVENKIEGDGNCQFRSLSDQLYRSPEHHNFVREQVVNQLAYNREIYEGYVPMAYNDYLKAMKRNGEWGDHVTLQAAADLFGVRMFVITSFKDTCYIEILPHFQKSNRLICLSFWAEVHYNSIYPEGELPIPEGKKKKKYWVF
[1]
  cleavage: comparable to that catalyzed by the corresponding wild-type proteins
[3]
  cleavage: comparable to that catalyzed by the corresponding wild-type proteins

B9: OTU10-NΔ1-125 (protein)
chain: EWIGNDNDQDGRSDDSVNVFSCSSPSDTDEYVYSWESDQCDADGEFGRRLNQMVPIPYIPKINGEIPPEEEAVSDHERLRNRLEMFDFTEVKVPGDGNCQFRALADQLYKTADRHKHVRRQIVKQLKSRPDSYQGYVPMDFSDYLRKMSRSGEWGDHVTLQAAADAYRVKIVVLTSFKDTCYIEILPTSQESKGVIFLSFWAEVHYNAIYLNRDTSETELQRKRKWWRFGN
[1]
  cleavage: comparable to that catalyzed by the corresponding wild-type proteins
[3]
  cleavage: comparable to that catalyzed by the corresponding wild-type proteins

B10: OTU10-NΔ1-173 (protein)
chain: RLNQMVPIPYIPKINGEIPPEEEAVSDHERLRNRLEMFDFTEVKVPGDGNCQFRALADQLYKTADRHKHVRRQIVKQLKSRPDSYQGYVPMDFSDYLRKMSRSGEWGDHVTLQAAADAYRVKIVVLTSFKDTCYIEILPTSQESKGVIFLSFWAEVHYNAIYLNRDTSETELQRKRKWWRFGN
[1]
  cleavage: comparable to that catalyzed by the corresponding wild-type proteins
[3]
  cleavage: comparable to that catalyzed by the corresponding wild-type proteins

B11: His-tagged OTU2 (protein)
chain: MEGIIVRRVIPSDNSCLFNAIGYVMDKDKNKAPELRQVIAAAVASNKEKYNEAFLGKLNEEYCAWILNPDKWGGAIELSILADYYGREIAAYDIQTSRCDLYGQTRNYDERVMLIYDGLHYDALALSPFEGAEEDFDMTIYPVGKDRSIGSIEGLALNLVKDQQRKRSYTDTANFTLRCGVCQIGVIGQKEAVEHAQATGHVNFQEYK
[1]
  in vitro deubiquitylation activity: +
[2]
  in vitro deubiquitylation activity: -
[3]
  in vitro deubiquitylation activity: +
[4]
  in vitro deubiquitylation activity: -
HA3-SUMO-GST, P55852
  in vitro deubiquitylation activity: -
HA3-RUB-GST, Q9SHE7
  in vitro deubiquitylation activity: -
[6]
  in vitro deubiquitylation activity: -
[5]
  in vitro deubiquitylation activity: -

B12: His-tagged OTU3 (protein)
chain: MELKSSSNNNILEQLRNGFARFELVSSPTASVSDSISSTSLPASFISTTKGNSYVFFARINSSMNRSPAAKKVEKYAVDRVKGDGRCLFRALVKGMAFNKGITLNPQRERDDADELRMAVKEVICNDPKEREKYKEALVAITVDESLKRFCQRIGRHDFWGGESELLVLSKLCKQPIIVYIPEHEHGRGGGYGPGFIPIQEYGSEFRGGWGKGKTNKNVVRLLYSGRNHYDLLR
[1]
  in vitro deubiquitylation activity: +++
[2]
  in vitro deubiquitylation activity: +
[3]
  in vitro deubiquitylation activity: ++
[4]
  in vitro deubiquitylation activity: -
HA3-SUMO-GST, P55852
  in vitro deubiquitylation activity: -
HA3-RUB-GST, Q9SHE7
  in vitro deubiquitylation activity: +
[6]
  in vitro deubiquitylation activity: ++
[5]
  in vitro deubiquitylation activity: +

B13: GST-OTU4c (protein)
chain: B4 chain with S136C
[1]
  in vitro deubiquitylation activity: +++
[2]
  in vitro deubiquitylation activity: ++
[3]
  in vitro deubiquitylation activity: +++
[4]
  in vitro deubiquitylation activity: -
HA3-SUMO-GST, P55852
  in vitro deubiquitylation activity: -
HA3-RUB-GST, Q9SHE7
  in vitro deubiquitylation activity: +
[6]
  in vitro deubiquitylation activity: ++
[5]
  in vitro deubiquitylation activity: ++

B14: His-tagged OTU7a (protein)
chain: B5 chain with S48C
[1]
  in vitro deubiquitylation activity: ++
[2]
  in vitro deubiquitylation activity: -
[3]
  in vitro deubiquitylation activity: +
[4]
  in vitro deubiquitylation activity: -
HA3-SUMO-GST, P55852
  in vitro deubiquitylation activity: -
HA3-RUB-GST, Q9SHE7
  in vitro deubiquitylation activity: +
[6]
  in vitro deubiquitylation activity: ++
[5]
  in vitro deubiquitylation activity: -
